Reference: paper PMC12412785

Assays:
[1] = target: 6His-PpBRCA2-Cter (amino acids 251–391) (P. patens); test: BLI; 6His-PpBRCA2-Cter immobilised on Ni-NTA biosensors, PpRAD51-2 in solution (1.88–30 nM); buffer A with 0.1% Tween-20; 25°C
[2] = target: biotinylated PpBRCA2-BRC1 peptide (P. patens); test: BLI; biotinylated BRC peptides (0.5 μM) immobilised on streptavidin biosensors, PpRAD51-2 in solution in two-fold serial dilutions; 25°C; buffer A (25 mM Tris pH 7.5, 100 mM Na2SO4, 5 mM β-mercaptoethanol) with 0.05% Tween-20; Kd in steady-state mode
[3] = target: biotinylated PpBRCA2-BRC2 peptide (P. patens); test: as above
[4] = target: biotinylated PpBRCA2-BRC4 peptide (P. patens); test: as above
[5] = target: PpRAD51-2, purified recombinant (P. patens)
[6] = tested on: PpBRCA2-NterT138 (Physcomitrium patens); test: BLI; conditions: text cites Fig. 7B; Kd in Fig. 7C not in text; EMSA: 10 mM Tris-HCl pH 7.5, 50 mM NaCl, 5 mM MgCl2, 2 mM ATP, 1 mM DTT, 37 C, 7 min (RAD51/DMC1 15 min), 0.01% glutaraldehyde; BLI: 25 mM Tris pH 7.5, 100 mM …

## PpRAD51-2, purified recombinant (natural protein)
[1]
  Kd: 0.0043 µM
[2]
  Kd: 0.4 µM
[3]
  Kd: 0.8 µM
[4]
  Kd: 0.4 µM

## 6His-PpBRCA2-Cter (amino acids 251–391) (domain or fragment)
[5]
  concentration needed for complete inhibition of PpRAD51-ssDNA filament formation (EMSA; 1 μM RAD51-2, 3 μM 100 nt ssDNA, 0–4 μM PpBRCA2-Cter): 2 µM

## 100 nt ssDNA (BLI)
[6]
  fold decrease in affinity relative to PpBRCA2-Nter (fold weaker affinity than PpBRCA2-Nter): 50

## biotinylated PpBRCA2-BRC4 peptide
[5]
  concentration needed for complete inhibition of PpRAD51-ssDNA filament formation (EMSA; 1 μM RAD51-2, 3 μM 100 nt ssDNA, 0–4 μM PpBRCA2-BRC4): > 4 µM
